Laboratory results published in the DeepSol protein solubility set.

test: soluble on expression in E. coli; label from the status in PepcDB or PDB records

Sequence | soluble on expression in E. coli
MSLPRGLELLIAQTILQGFDAQYGRFLEVTSGAQQRFEQADWHAVQQAMKNRIHLYDHHVGLVVEQLRCITNGQSTDAAFLLRVKEHYTRLLPDYPRFEIAESFFNSVYCRLFDHRSLTPERLFIFSSQPERRFRTIPRPLAKDFHPDHGWESLLMRVISDLPLRLRWQNKSRDIHYIIRHLTETLGTDNLAESHLQVANELFYRNKAAWLVGKLITPSGTLPFLLPIHQTDDGELFIDTCLTTTAEASIVFGFARSYFMVYAPLPAALVEWLREILPGKTTAELYMAIGCQKHAKTESYREYLVYLQGCNEQFIEAPGIRGMVMLVFTLPGFDRVFKVIKDRFAPQKEMSAAHVRACYQLVKEHDRVGRMADTQEFENFVLEKRHISPALMELLLQEAAEKITDLGEQIVIRHLYIERRMVPLNIWLEQVEGQQLRDAIEEYGNAIRQLAAANIFPGDMLFKNFGVTRHGRVVFYDYDEICYMTEVNFRDIPPPRYPEDELASEPWYSVSPGDVFPEEFRHWLCADPRIGPLFEEMHADLFRADYWRALQNRIREGHVEDVYAYRRRQRFSVRYGEMLFEGHHHHHH | not soluble
MDPFGKYIKAVSARAADKEILKKAQDGGIVSAAYIYGLESGLLDGVIIADKEDGFAAAPKVATTREEILNAAGTKYTVCPNLSVVKSAVREYGCDKLGFVGTPCQVRSIRKAIKYPVGYRHVPDKIALIMGIFCMENFPYNGMKAIVEEHCGIKMDDVVKTDIGKGKFWVYSKWGDVKTIPLKDTHPYEQGSCHVCMDYTAELADISTGSVGSPDGWSTIFVRTAKGEEYLNKMVEAGALETKEIDAVKPGLGLVEKLALTKKEKNGKEVEHRKEIGLPVPYLEHHHHHH | not soluble
MGSDKIHHHHHHMNYKELNKIFKETLSLRWDPVAVRMMRPGEEKPAQGIEPTVPLRHCQSIITARRGNCLYMPPRSHACPDGTGVLGLVEMSPKLRSGDLYLLFKKMPNIETARQMISSRPEFKAGSYEATLLAPLEKAAFEPDVVVFTLWPEQAMWLCCAQTYATGERQDFKTSGFNSACADLIVQTMTSGEMNISFGCYGARASSEIDDFELYLAIPTALLEPIAQALLKLSQKSIPEERKKIYLHPVMDKVGSRRAQSQGEGARVELFVDTERCMGDGLCVDFCPSGVLAMVEAGDRKVAQALHPDACSACYTCVGQCPQQAIQLSYN | not soluble
MHHHSHHHHSHMDVTIQHPWFKRTLGPFYPSRLFDQFFGEGLFEYDLLPFLSSTISPYYRQSLFRTVLDSGISEVRSDRDKFVIFLDVKHFSPEDLTVKVQDDFVEIHGKHNERQDDHGYISREFHRRYRLPSNVDQSALSCSLSADGMLTFCGPKIQTGLDATHAERAIPVSREEKPTSAPSSLEIRLLLEIRLL | soluble
MSLVESLADLEEEKKKNILSSGNGEIDKRLGGGIPLGSLTLIEGENDTGKSVLCQQFVYGGLMSGHNIAYYTTENTIKSFLRQMESLSLDVSDFYAWGYLRVFPVHLEGIDWSTEQMRSILNLVANHIKTIRENIAIIDSLTMFTTYSTEDDVLEFLTRLKNLCDNGKTILITLHQHAFKEDTLVRIRSACDCHLFLRKEQVGDRYVSVLEVSKIRGARKTTGNIVSFEVHPGFGLKIIPVSEARAEGHHHHHH | soluble
MAIIKRSAATDNPNIEILSTPEQIDVLSAEALMEALQGDDLEQILRAIHQLEAADSVEFQQHQAALFTLLDRDTEQNPCSDAVFSLLAIRNNDEITTRLIPLLDSEAPYLRNQAIEILQHSPQQLERHIQDLLNHQDPDVRIFAIDIIGLLPHQSVPEWLMQVLQHEEHINVIGTAIDRVAQLSDPNFSTILGEVKQRFSHVPYLVFACDVAIKRLNT | not soluble
MLLDKLSRPLKVLRISLTDRCNLRCNFCMPPGKEYNFLPKRQLLTPEEIEEYVKIFAKLGVEKVRLTGGEPLLREDLEEIIQRISKVEGIKDIALTTNGVFLKERLKALKEAGLKRITVSVHSLNPEKNQKLVNRSVNLGEVFEVIIRAKELGFKVKVNSVIIKGFNDDEILDLARFFKNLGVTLRFIEYMDVGTVNDWDFSKVVSADEILNLMKKEFTFYPLPKRPEDTSMDFIYEDGNKFGIIASVTKPFCRGCNRIRLSADGKLYTCLFSDKGHDLRNAVDKENFIKEVWKDRKDRYSELRRQMKRERKVEMFKVGGLEHHHHHH | not soluble
MAHHHHHHMKLLLQADTPGGAAEREANPKYLSTDTLIIVPGHGVLNAPNASEWKNESEWCLEPHQLRAGVVLPLCFASHIRRGLEILRDQINTSILIFSGGQTCGIAGPRSEALGYYIVAKESKLFGIFEPEYVAKDIMNGRIFTEEFARDSYENLLFSIARFYEVTGHFPGSVVVVGWKHKAERFTMYHREAIRFPADKFTYVGLDFADAEPFVEDLQPYQVAKPYTDENALSSVSKDMYLCDAGRRTRSKRNPYFRVPPYLVSCPPLRQLLQHCGPELIDTRRVPWK | not soluble
MSLKTGRSNIIAFIVPDQNPFFTEVLTEISHECQKHHLHVAVASSEENEDKQQDLIETFVSQNVSAIILVPVKSKFQMKREWLKIPIMTLDRELESTSLPSITVDNEEAAYIATKRVLESTCKEVGLLLANPNISTTIGRKNGYNKAISEFDLNVNPSLIHYSDQQLGTNAQIYSGYEATKTLLSKGIKGIVATNHLLLLGALQAIKESEKEIKKDVIIVGFDDSYWNEIYTPKLTVISQPVKEMGQVAAKMIYKLIKGKDVTSIKLSTKLIIRESCSFNEGHHHHHH | soluble
MGLHRLIYLSCATDGLSYPDLRDIMAKSEVNNLRDGITGMLCYGNGMFLQTLEGDRQKVSETYARILKDPRHHSAEIVEFKAIEERTFINWSMRLVQLGEMDSDTIRRLRLKYSPAATFQPRSMTAEQCFRFLKELYDMSQGS | soluble
MGSDKIHHHHHHMIEVSRFWRDPALPFVEARQVGDGRKVCYAAHSHESFSIGVITGGRSTYINSDQCVEVGAGTTVLMNPGVVHTCNPVAGEPWSYLMLFVDQPWLQAVGFTLPTQTWSRSPVLYRRLLQAFADLFDARLPDREARLAALFHELPGMLGGNASEGGEGNPRLDAAAAFIRAHRSDPLSLEDICGACGLSRSYLIRAFRQRFGLTPHGYLLDQRVQLARAQLRQGRSIAEVAQEAGFADQAHLQRAFKQHLAATPGHYRNAVASLGAPAGAVQALKDQVNRAGDQ | not soluble
MSFSLEMPQMLPAPRDCYAVPGKPGHSEPLTVVGWEHMDLKLFYPSALFSSWSIRTALYPLAVLRSQLQLQKQNTVYRSTFHAYSDISKREGFRGLYRGFWITVPQIGCSFIYSTIFEKCRAVLHEQGIQSVGGVAAVAGGLASFATQSIFVPTDIIAQYMMIYKNTDKLTAGHDKSVIDGVRNHVKNGSGLGTSVIKAIYKTDGILGFYRGFWASTAVYVPQMLTFWPSYYWMLGLFNKVPYRTLHPATNRSLLFDQAVAATLGGVISTVATNPMELFRVRLQVHRGSYSKTLETMLRDEKTAVFTKGLTPRIIANSMYSGLVVVGYEIVKRLCAKEEYKHRVKW | not soluble
MGSDKIHHHHHHMEIPPEILQSLIELGFTKYEVLTYWTLLVYGPSTAKEISIRSGIPYNRVYDTISSLKVRGFVTEIEGNPKVYAAYSPRIAFLRFKKELDEISEKLEKAISEVKREERCRPSIWRSHDFEEAIEMFKETLESSENEVIVVTPSEFFKSIRETLIGILDRGVTLSLYIDKVPDISDFEGRGNFFLRRFTKFNHLIGLADGKVVATIQNVSFMPPSPPSFKSTFKEIIFSQYSLTLEIFKESSLEVEQIMNPQDIRFFAVFHAADFVKRHLPSSTIFSEIVGRNVKTGEVEKLYGKVVGYTLSFREGVNNIQIETEKGIVKVGGMFAVIEDYESTNVRLMLES | not soluble
MGSDKIHHHHHHMSHLPHLIAKLENHAEWVKRLVLVGQKSWHTPLQKGGWSPAEVIHHFHRWDDFARNYRFIPFLAGRATFTAGAHAKFNEHSEREVRDGLGKEAIIVQCLKSRYALIETVEKLREEAWEQTLTIGDHDLSIHTYLQGVIEHDRHHREQIEQFFSLEQQGKLPMVNITERCGEELPMNLLLLADPEQAMIERYLSGGLGFLAEVEGTPVGVIVLKDKGHGLFEVMNIAVAEQEQGKGYGKLLLLHGIHVALKRGADRIEIGTGNSSIGQLALYQRCGFSITAVDKDFFTKHYHEPIVEQGIRCEHMIRLAQDLK | not soluble
